Measured values reported in the nanobody polyreactivity screen of Harvey et al. (2022).

Test: yeast display, Sf9 membrane polyspecificity reagent, FACS + sequencing; frameworks hold sequencing errors
How it was run: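 Synthetic nanobody libraries on Saccharomyces cerevisiae BJ5465 were galactose-induced for 36–48 hours, stained 1 hour at 4 °C with 10% biotinylated, detergent-solubilized Sf9 membrane reagent and enriched on streptavidin microbeads. FACS then separated cells into low and high (top ~1%) gates by anti-HA (expression) and streptavidin (reagent binding) fluorescence. Genes were colony-PCR amplified, MiSeq 2 × 250 sequenced and CDR-length filtered. A clone's polyreactivity label is that of its gate of origin.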

| Sequence | polyreactivity (PSR sort gate) |
| --- | --- |
| QVQLVESGGGLVQAGGSLRLSCAASGLTFVWYAMGWYRQAPGKDRELVAAITLSGGSTYYADSGKGRFTISRDNAKNTVYLQMNSLIPEDTAVYYCAADGTYRPEDYDYWGQGTQVTVSS | low polyreactivity |
| QVQLVESGGGLVQAGGSLGLSCAASGFTFHNYAMGWYRQAPGKERELVAAITWDGGSTYYAVSVKGRFTISRDKAKNTVDLQMNSLKPEDTAVYYCALDPYYYYYGDYNFDYWGQGTQVTVSS | high polyreactivity |
| QVQLVESGGGLVQAGGSLRLSCAASGSIFIAYGMGWYRQEPGKERELVAAITVSGGNTYYADSVKGRFTISRDNAKNTVYLQMNSLKPEDTAVYYCAADYWYYYGKVLYDYWGQGTQVTVSS | low polyreactivity |
| QVQLVESGGGLVQAGGSLRLSCAASGLTFNVYAMGWYRQAPGKERELVASITKRGGSTYYADSVKGRFTISRDNAKNTVYLQMNSLKPEDTAVYYCAADGLTGSIYRATGYYWGQGTQVTVSS | high polyreactivity |
| QVQLVESGGGLVQAGGSLRLSCAASGFTFGSYAMGWYRQAPGTERELVAAISCSGGSTYYADSVKGRFTISRDNAKNTVYLQMNSLKPEDTAVYYCAVRYPLYRMDYWGQGTQVTVSS | high polyreactivity |
| QVQLVESGGGLVQAGGSLRLSCAASGITFHRYDMGWYRQAPGKERELVADITWSGGSTYYADSVKGRFTISRDNAKNTVYLQMNSLKPEDTSVYYCAADASTYTYTPYDYWGQGTQVTVSS | low polyreactivity |
| QVQLVDSGRGLVQAGGSLRLSCAASGFTVGVNAMGWDRQAPGKERELVAAITRSGGTTYYADSVQGRFTISRDKAKNTVYLQMNSLKPEDTAVYYCNRRARSYADDYWGQGTQVTVSS | high polyreactivity |
| QVQLVESGGGLVQAGGSLRLSCAASGLIFQVYDMGWYRQAPGKERELVAAISSGSNTNYADSVKGRFTISRDNAKNTVYLQMNSLKPEDTAVYYCAAGLYLQGPFDYWGQGTQVTVSS | low polyreactivity |
| QVQLVESGGGLVHAGGSLRLSCAAYGIIFQYYTMGWYRQAPGKERELVASITYDGDSTYYADSVKGRFTISLDNAKNTVYLQMNSLKPEDTALYYCAAVANGFWTYEYWGQGTQVTVSS | low polyreactivity |
| QVQLVESGGGLVQAGGSLRLSCAASGSTFVINAMGWYRQAPGKERELVAAISYDGGGTYYADSVKGRFTISRDNAKNTVYLQMNSLKPEDTAGYYCAAENFYPYTYYASDYWGQGTHVTVSS | high polyreactivity |
| QVQLVESGGGLVQAGGSLRLSCAASGIIFSDYAMGWYRQAPGKERELVAAISRNGGSTYYADSVKGRFTISRDNAKNTVYLHMTSLKPEDTAVYYCAATRRYRYNWGQGTQVSVSS | high polyreactivity |
| QVQLVESGGGLVQAGGSLRLSCAASGLNFTYNAMGWSRQAPGKESELVAAITRSGGSTYYADSVKGRFTISRDNAKNTVYLQMNSLKPEDTAVYYCAKDDSAYSKYGYWGQGTQVTVSS | low polyreactivity |
| QVQLVESGGGLVQAGGSLRLSCAASGSTFGSYAMGWYRQAPGKERELVAAISWNGGRTYYADSVKGRFTISRDNAKNTVYFQRNSLKPEDTAVYYCAKVVKYQSGGGLEYWGQGTQVTVSS | high polyreactivity |
| QVQLVESGGCLVQAGGSLRLSCAASGSIFGYYAMGWYRQAPGKERELVAAISYSGGSTYYADSVKGRFTISRDTAKNTVYLQMNSLKPEDTAVYYCNAVTSWAYWRGPRYDYWGQGTQVTVSS | high polyreactivity |
| QVQLVESWGALVQAGGSLRLSCAASGSTFGSNAMGWYRQAPGKERELVAAITYSGGRTYYADSVKGRFTISRDNAKNTVYLQMNSLTPEDTAVYYCAATFGFFYYQYDYWGQGTQVTVSS | low polyreactivity |
| QVQLVESGGGLVQAGGSLRLSCAASGLTFQLYTMGWYRQAPGKERELVAAISRSGTRTYYADSVKGRFTISRDNAKNTVYLQMNSLKPEDTAVYYCAARTDGYRNNYWGQGTQVTVSS | high polyreactivity |
| QVQLVESGGGLVQAGGSLRLTCAASGRIFTRYAMGWYRQAPGKERELVAAISYGGGGTYYADSVKGRFTISRDNAKNTVYLQMNSLKPEVTSVYYCAADPGYYSWGSSQDDYWGQGTQVTVSS | low polyreactivity |
| QVQLVESGGGLVQAGGSLRLSCADSGRTFGPYAMGWYRQAPGKERELVAAITSSGGSTYYADSVKGRFTISRDNAKNTVSLQMNSLKPEDTAVYYCNKLYWRQSQDYDYWGQGTQVTVSS | low polyreactivity |
| QVQLVESGGGLVQPGGSLRLSCSASGSIFRVYGMGWYRQAPGKERELVAAITWSGGSTYYADSVKGRFSISRDKAKNTVYLQQNSLKPEDTAVYYCAARARPRYYRPPYDYWGQGTQVTVSS | high polyreactivity |
| QVQLEESGGGLVQAGGSLRLSCAASGFTFRLYAMGWYRHAPGKERELFARISSGGSTHYADSVKGRFTISRDNAKNTVFLQMNSLKPEDTAVYYCAAGWGYWRSYGSWGQGTQVTFSS | high polyreactivity |
| QVQLVESGGGLVQAGGSLRLSCAASGSIVGGYDMGWYRQAPGKERELVAVINSNGGSTYYADSVKGRFTISRDNANNTVYLQMNSLKPEDTAVYYCAADYESYVYIGYGYWGQGTQVTVSS | low polyreactivity |
| QVQLVESGGGLVQAGGSLRLSSASSGFTFTFYAMGWYRQEPGKERELVAAISKGGGSTSYADSVKGRFTISRDNAKNTVYLQMNCLKPEETAVYYCAARYYYSRSRLYYYWGQGTQVTVSS | high polyreactivity |

| Sequence | polyreactivity (PSR sort gate) |
| --- | --- |
| QVQLVESGGGLVQAGGSLRLSCAASGRTFTAYAMGWYRQAPGKERELVAAITVSTSSTFYADSVKGRFTISRDNAKNTVYLQMNSLKPEDTAVYYCNKETLYPLDYWGEGTQVTVSS | low polyreactivity |
| QVQLVESGGGLVQAGGSLRLSCAASGRTFAYNAMGWYRQAPGKERELVAAITRRGGSTYYADSVKGRFTISRDNAKITVYLQMNSLKPEDTAVYYCDARWVTTVQGDGRYDYWGQGTQVTVSS | low polyreactivity |
| QVQLVESGGGLVQAGGSLRLSCAASGLLFGRNVMGWYRQGPGKERELVAAISWSGGRTYYADSVKGRFTISRDNAKNTVYLQMNSLKPEDTAVYYCAADDGPGFDYWGQGTQVTESS | high polyreactivity |
| QVQLVESGGGLVQAGGSLRLSCAASGFIFGYNAMGWYRQAPGKERELVAAISTRGGSTYYADSVKGRFTISRDNAKNTVYLQMNSLKPEDTAVYYCNKVTRVPFDSWGQCTQVTVSS | high polyreactivity |
| QVQLEESGVGLVQAGGSLRLSCAASGSTFQTYVMGWYRQAPGKERELVAAISSGGSTNYADSVKGRFTISRDNAKNTVYLQMNSLKPEDTAVYYCAKRWPYFRRGKDGYWGQGTQVTVSS | low polyreactivity |
| QVQLVESGGGLVQAGGSLRLSCAASGFTFISNAMGWYRQAPGKERELVAAISSSGGRTYYADSVKGRFTSSRDNAKNTVYLQMNSLKPEDTAVYYCNADRSLLYSRKIEYDYWGQGTQVSVSS | low polyreactivity |
| QVQLVESAGGVVQAGGSLRKSCAASLGWYRQAPGKERELVATITSDAGTNYADSVKGRFTISRDNAKNTVYLQMNSLKPEDTAVYYCAATPPYRVYGVNYWGQGTQVTVSS | low polyreactivity |
| QVQLVESGGGLVQAGGSLRLSCAASGNIFTYNAMGWYRQAPGKERELVAAISWTADSTYYADSVKGRFTISRDNAKNTVYLQMNSLKPEDTAVYYFAADSQYADYGYWGQGTQVTVSS | high polyreactivity |
| QVQLVESGGGLVQAGGSLRLSCAASGSILYINTMGWYRQAPGKERELVAAITYSGGSTYYADSVKGRLTISRDNAKNTVYLQMNRLKPEDTAVYYCAADGYYGGYNYWGQGTQVTVSS | low polyreactivity |
| QVQLVESGGGLVQARGSLRLSCAASGRTFRYYTMGWYRQAPGKEREFVAAITFRGGSTYYADSVKGRFTISRDNAKNTVYLQMNSLKPEDTAVYYCAAVGRYSRYPYSDTYGYWGQGTQVTVSS | high polyreactivity |
| QVQLVESGGGLVQAGGSLRLSCAASGRTFDLNGMGWYRQAPGKERELVAAITRGGSTNYADSVKGRFTISRDNAKNTVYLQMNSLKPEDTAVYYCAADSSFWYYDRYDYWGQGTQVTVSS | low polyreactivity |
| QVQHVESGGVLVQAGGSLRLSCAASGSTFARNALGWYRQAPGKETELVAAITTRGSSTYYADSVKGRFTISRDKAKNTVYLQLYSLKPEDTAVYYCAAVSRRSWYWGGYRQNGMGYWGQGTQVTVSS | high polyreactivity |
| QVQLVESGGGLVQAGGSLRLSCAASGSIFYSYVMGWYRQAPGKERELVAAISRNGQSTYYADSVKGRFTISRDNAKNTVYLQMNSLKPEDTAVYYCAARSRDKYDYWGQGTQVTVSS | high polyreactivity |
| QVQLVESGGGLVQAGGSLRLSCAASGRTFQYYVMGWYRQAPGKERELVAAITSAGSTNYADSVKGRFTISRDNAKNTVYLQMNSLKPEDTAVYYCNADLWVNLHNDDDYWGQGTQVTVSS | low polyreactivity |
| QVQLVESGGRLVQAGGSLRLSCAASGSTFRYYAMGWYRQAPGKERELVAAITSSGTSTYYADSVKGRFTISRDNAKNTVYLQMNSLKPEDTAVYYCAAPPVYKWVSSRYDYWGQGTQVTVSS | low polyreactivity |
| QVQLVESVGGLVQAGGSLRLSCAASGSIFGTYAMGWYRQAPGKERELVAAISWRGGTYYADSVKGRFTISRDNAKNTVYLQMNSLKPEDTAVYYCNKLYTHRALGRLDYWGQGTQVTVSS | high polyreactivity |
| QVQLVESGGGFVQAGGSLRLSGAASGSIFYCNAMGWYRQAPGKDRELVAAISYSGGSTYYADSVKGRFTLSRDTAKNTVYLQMNSLKPEDTAVSDGAAGPITLRYLTIYYTFDYWGQGTQVTVSS | high polyreactivity |
| QVQLVESGGGLVQAGGSLRLSCAASGRTFLFNTMGWYRQAPGKERELVAAITRRGGSTYYADSVKGRFTISRDNAKNTVYLQMNSLKPEDTAVYYCNAPAYSPPGYYWGQGTQVTVSS | low polyreactivity |
| QVQLVESGGGLVQAGGSLRLSCAASGSIFYIYAMGWYRQAPGKERELVASITFSGDITYYADSVKGRFTISRDNAKNTVYLQMNSLKPEDTAVYYCAADYHEQSYAVTYDYWGQGTQVTVSS | low polyreactivity |
| QVQLVESGGGLVQAGGSLRLSCAASGFTFAYYAMGWYRQAPGKERELVASISYNGGITNYADSVKGRFTISRDNAKNTVYLQMNSLKPEDTSVYYCNAVPHYYWRFDYWGQGTQVTVSS | low polyreactivity |
| QFQLVESGGGLVQAGASLRLSCAASGRIFEIYAMGWYRQAPGKDRELVAASSWRGVSTYYADSVKGRFTITRDNAKKTVYLQMNSLKPEDTAVYYCNKDVDYFWYVEYDYWGHGTQVTVSS | low polyreactivity |
